According to US20230329245A1, “COMPOSITIONS AND METHODS OF USE THEREOF” (Curie Co. Inc., priority 2020, published 2023):

Tests used:
C. albicans ATCC 10231 = assay: Growth reduction of C. albicans culture (OD600 / BacTiter-Glo); assay type: cell-based; settings: C. albicans ATCC 10231
Experimental: For MIC determination of yeast cultures, C. albicans ATCC 10231 was grown overnight (24 hours) in YPD media at 30° C. The following day, the cell density of the saturated cultures was calculated using OD600 and cultures were diluted to 10^4 to 10^6 CFU/mL in sterile YPD media to generate the inoculum, and 90 μL of the inoculum was combined with 10 μL of serially diluted Tgase SEQ ID NO:1 at a range of 0.0001-0.01 weight percent. The cultures were grown overnight at 30° C. and growth curves were measured by OD600 on a BioTek® Synergy Plate Reader. Optionally, the following day, a cell viability assay such as BacTiter-Glo™ (Promega®) following manufacturer's protocols) could be used to assess cell viability. A decrease in OD600 or luminescence indicated a decrease in cell viability. Results are presented as a percent reduction in cell count relative to an untreated culture. All test conditions were performed in triplicate.
Yeast or bacterial starter cultures were grown as described previously. Tgase (SEQ ID NO:6) was added to each culture at 0.001-1 weight percent. The cultures were grown overnight at 30° C.-37° C. and growth curves were measured by a BioTek® Synergy Plate Reader.

S. aureus ATCC 6538 = assay: MIC determination, S. aureus; assay type: cell-based; settings: CAMHB pH 7.3, 37° C., 18 to 20 hours, duplicate
Experimental: A variant form of Streptomyces mobaraensis transglutaminase having the amino acid sequence depicted in SEQ ID NO:6 was prepared by literature methods with a hexa-his-tag to aid in purification (Javitt, et al. (2017) BMC Biotechnol. 17:23). The cells were grown in shake flasks, lysed by homogenization, and the Tgase variant (SEQ ID NO:6) was isolated from the cell debris by centrifugation. The resulting semi-purified enzyme (clarified lysate) were compared on an SDS-PAGE gel, by spectroscopy, and activity for concentration of active enzyme. The Tgase variant (SEQ ID NO:6) was further purified by affinity column on a Ni-IMAC resin prior to MIC assay. Tgase activity was measured in the examples herein using a colorimetric hydroxamate activity assay (Folk and Cole (1965) J Biol Chemistry 240(7):2951-2960). The enzyme was diluted to a working stock concentration of 2 mg/mL in CAMHB or RPMI media (bacterial or fungal media). This was then 2-fold serial diluted ten times in the appropriate media in a 96-well master plate to generate 2× starting concentrations for MIC testing.
Strains were acquired from the American Type Culture Collection (ATCC) (Manassas, VA) and maintained as −80° C. frozen glycerol stocks: S. aureus ATCC 6538, E. coli ATCC 8739, P. aeruginosa ATCC 9027, C. albicans ATCC 10231, and A. brasiliensis ATCC 16404. […]

B1: Tgase (SEQ ID NO: 6): variant Streptomyces mobaraensis transglutaminase (SEQ ID NO:2) with N-terminal Methionine, C-terminal peptide linker and hexa-His-Tag (protein)
chain: MDPDDRVTPPAEPLDRMPDPYRPSYGRAETVVNNYIRKWQQVYSHRDGRKQQMTEEQREWLSYGCVGVTWVNSGQYPTNRLAFASFDEDRFKNELKNGRPRSGETRAEFEGRVAKESFDEEKGFQRAREVASVMNRALENAHDESAYLDNLKKELANGNDALRNEDARSPFYSALRNTPSFKERNGGNHDPSRMKAVIYSKHFWSGQDRSSSADKRKYGDPDAFRPAPGTGLVDMSRDRNIPRSPTSPGEGFVNFDYGWFGAQTEADADKTVWTHGNHYHAPNGSLGAMHVYESKFRNWSEGYSDFDRGAYVITFIPKSWNTAPDKVKQGWPLEHHHHHH
- Fold improvement in enzyme efficacy (C. albicans ATCC 10231; Tgase (SEQ ID NO: 1) = 1): 10
- Percent Growth Reduction (C. albicans ATCC 10231; enzyme concentration 80 ug/mL): 99.95%
- MIC (S. aureus ATCC 6538): >1,000 μg/mL
